Measurements reported in patent US20240425837A1 (Novo Nordisk, published 2024).
No end group written: not given here.

Assays:
Experiment in all cases: ELISA, biotinylated 12-mer peptide on streptavidin, 2 ug/mL FLAG-tagged VHH, anti-FLAG-HRP
[1] = molecular target: T1, FX activation peptide 12-mer TWKPYDAADLDP (SEQ ID NO:709) (human)
T1 peptide: TWKPYDAADLDP-biotin
Procedure: (§1) To determine whether the binding epitope of the anti-FX VHH polypeptide designated “cmpd #1” are located inside the activation peptide (AP) of human FX (SEQ ID NO:2), an ELISA assay was setup. 41 unique 12-mer peptide fragments spanning the 52 residues of the activation peptide with one amino acid spacing were immobilized in microtiter plate wells followed by incubation with the VHH polypeptide to be tested, and detection of bound ligand was performed by addition of a secondary HRP-labelled antibody.
(§2) The peptides were C-terminally conjugated to biotin and 50 μL of 1 μg/mL peptide solution was used for immobilization in discrete wells of the microtiter plate which was pre-coated with 1 μg/mL streptavidin. Each well was washed with washing buffer (10 mM Tris, 150 mM NaCl, 2.5 mM CaCl₂, 0.05% Tween 20, pH 8.60) followed by addition of 50 μL of 2 μg/mL FLAG-tagged anti-FX VHH polypeptide or IgG antibody to be tested. After 1 hour non-bound VHH polypeptide was washed off using washing buffer.
(§3) Bound anti-FX activation peptide ligand was detected by first binding a HRP-labelled secondary antibody (for FLAG-tagged VHH polypeptide: Anti-FLAG mAb M2-Peroxidase (HRP) (Sigma Aldrich, US) for 1 hour, and then adding 100 μL TMB-1 ELISA substrate (Kem-En-Tec Diagnostics, Denmark).

[2] = molecular target: T2, FX activation peptide 12-mer PYDAADLDPTEN (SEQ ID NO:712) (human)
T2 peptide: PYDAADLDPTEN-biotin
Procedure: as §1, §2, §3

[3] = molecular target: T3, FX activation peptide 12-mer NQTQPERGDNNL (SEQ ID NO:731) (human)
T3 peptide: NQTQPERGDNNL-biotin
Procedure: as §1, §2, §3

[4] = molecular target: T4, FX activation peptide 12-mer DAADLDPTENPF (SEQ ID NO:714) (human)
T4 peptide: DAADLDPTENPF-biotin
Procedure: as §1, §2, §3

- ELISA signal normalized relative to the background signal [1]: 1.13 fold of background
- ELISA signal normalized relative to the background signal [2]: 0.83 fold of background
- ELISA signal normalized relative to the background signal [3]: 0.92 fold of background
- ELISA signal normalized relative to the background signal [4]: 0.88 fold of background
B1: Cmpd #1 (monovalent anti-FX VHH polypeptide, VHH-1.1) (VHH)
VHH: EVQLVESGGGLVQPGGSLRLSCAASGSIGAFDAMGWYRQAPGKQRELVAGIMVSRGNTNYTDSVKGRFTISRDNAKNTVYLQMNSLKPEDTAVYYCKAVKRPGPGYLEVWGQGTLVTVSS
notes: no protractor; FLAG-tagged in the peptide ELISA
